These results are taken from patent US11692025 (UNIVERSITY COURT OF THE UNIVERSITY OF ABERDEEN, dated 2023).

Assay [1] addresses T1, hen egg lysozyme (hen, UniProt P00698 19-147).
T1 construct: also called HEL
Put plainly: Biacore, monomeric VNAR. (SPR reads the build-up and loss of mass on a sensor chip optically.)

For assay [2], the target named is T1, hen egg lysozyme. The experiment in a line: BIAcore.
Another assay concerns the target T2, CSA (monkey, UniProt A2V9Z4 25-608, limits assumed).
T2 construct: also called monkey albumin
Put plainly: BIAcore, mean ± SE.

For assay [3], the target named is T3, human serum albumin (human, UniProt P02768 25-609).
T3 construct: also called HSA; HAS
Put plainly: BIAcore, mean ± SE.

In assay [4] the target is T4, mouse serum albumin (mouse, UniProt P07724 25-608).
T4 construct: also called MSA
Put plainly: BIAcore, mean ± SE.

Assay [5] addresses T5, rat serum albumin (rat, UniProt P02770 25-608).
T5 construct: also called RSA
The experiment in a line: BIAcore, mean ± SE.

In assay [6] the target is T3, human serum albumin. The experiment in a line: BIAcore, pH 7.4, monomeric 6xHis-tagged VNAR.
Assay [7] has as its target T4, mouse serum albumin. Put plainly: BIAcore, pH 7.4, monomeric 6xHis-tagged VNAR.
Assay [8] deals with T5, rat serum albumin. The experiment in a line: BIAcore, pH 7.4, monomeric 6xHis-tagged VNAR.
Assay [9] addresses T3, human serum albumin. Put plainly: BIAcore, pH 6.0, monomeric 6xHis-tagged VNAR.
In assay [10] the target is T4, mouse serum albumin. Put plainly: BIAcore, pH 6.0, monomeric 6xHis-tagged VNAR.
The target of assay [11] is T5, rat serum albumin. The experiment in a line: BIAcore, pH 6.0, monomeric 6xHis-tagged VNAR.
The target in assay [12] is T3, human serum albumin. Put plainly: BIAcore.
Assay [13] has as its target T4, mouse serum albumin. Put plainly: BIAcore.
In assay [14] the target is T3, human serum albumin. The experiment in a line: phage and periprep ELISA on HSA; purified 6xHis-tagged VNAR. The protocol: The resultant mutational phage display libraries were rescued and selected twice using Nunc Maxisorp immunotubes. Following each pan, two 96-well plates of individual colonies were picked with a QPix2 XT (Genetix, San Jose, Calif., USA). Binding as monoclonal phage and periprep was evaluated by ELISA. All samples were processed with a Perkin Elmer MiniTrak robotic liquid handling system (Waltham, Mass., USA).
On the technique in general: In an ELISA, binding on a coated surface is turned into a signal by an enzyme label.

T1 sequence (P00698 19-147): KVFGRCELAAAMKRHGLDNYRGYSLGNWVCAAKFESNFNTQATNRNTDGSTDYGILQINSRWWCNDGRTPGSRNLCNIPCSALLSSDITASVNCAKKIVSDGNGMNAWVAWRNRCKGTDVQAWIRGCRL
T2 sequence (A2V9Z4 25-608 limits assumed): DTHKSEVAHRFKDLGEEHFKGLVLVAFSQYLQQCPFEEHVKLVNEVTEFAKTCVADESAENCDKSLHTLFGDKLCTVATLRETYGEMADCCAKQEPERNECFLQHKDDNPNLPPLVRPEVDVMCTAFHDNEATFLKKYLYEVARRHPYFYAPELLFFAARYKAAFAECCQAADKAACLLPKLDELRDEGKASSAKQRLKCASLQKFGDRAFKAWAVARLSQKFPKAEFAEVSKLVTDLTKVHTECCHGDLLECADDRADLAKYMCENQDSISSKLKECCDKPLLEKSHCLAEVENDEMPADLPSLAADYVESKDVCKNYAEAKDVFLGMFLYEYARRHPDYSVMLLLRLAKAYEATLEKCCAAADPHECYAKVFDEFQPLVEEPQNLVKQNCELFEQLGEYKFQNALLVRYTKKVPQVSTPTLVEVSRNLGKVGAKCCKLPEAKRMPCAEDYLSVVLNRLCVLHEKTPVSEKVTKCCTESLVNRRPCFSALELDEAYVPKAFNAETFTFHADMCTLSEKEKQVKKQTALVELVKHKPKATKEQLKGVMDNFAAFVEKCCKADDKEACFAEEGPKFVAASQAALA
T4 sequence (P07724 25-608 limits assumed): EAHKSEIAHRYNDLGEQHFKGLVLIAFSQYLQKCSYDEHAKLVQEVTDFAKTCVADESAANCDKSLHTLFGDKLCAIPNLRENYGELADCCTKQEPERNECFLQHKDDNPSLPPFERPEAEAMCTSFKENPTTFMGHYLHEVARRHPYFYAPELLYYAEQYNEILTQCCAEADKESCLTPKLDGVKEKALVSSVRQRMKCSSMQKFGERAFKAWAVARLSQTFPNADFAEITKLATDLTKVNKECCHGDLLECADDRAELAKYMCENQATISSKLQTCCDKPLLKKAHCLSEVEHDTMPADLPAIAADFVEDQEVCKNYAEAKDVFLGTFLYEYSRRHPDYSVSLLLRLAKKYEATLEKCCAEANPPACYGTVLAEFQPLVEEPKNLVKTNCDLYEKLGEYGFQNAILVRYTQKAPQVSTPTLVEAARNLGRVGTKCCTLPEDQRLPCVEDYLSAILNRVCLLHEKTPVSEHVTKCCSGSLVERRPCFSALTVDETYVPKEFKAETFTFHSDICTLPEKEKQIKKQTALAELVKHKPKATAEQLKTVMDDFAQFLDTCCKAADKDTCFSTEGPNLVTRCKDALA
T5 sequence (P02770 25-608 limits assumed): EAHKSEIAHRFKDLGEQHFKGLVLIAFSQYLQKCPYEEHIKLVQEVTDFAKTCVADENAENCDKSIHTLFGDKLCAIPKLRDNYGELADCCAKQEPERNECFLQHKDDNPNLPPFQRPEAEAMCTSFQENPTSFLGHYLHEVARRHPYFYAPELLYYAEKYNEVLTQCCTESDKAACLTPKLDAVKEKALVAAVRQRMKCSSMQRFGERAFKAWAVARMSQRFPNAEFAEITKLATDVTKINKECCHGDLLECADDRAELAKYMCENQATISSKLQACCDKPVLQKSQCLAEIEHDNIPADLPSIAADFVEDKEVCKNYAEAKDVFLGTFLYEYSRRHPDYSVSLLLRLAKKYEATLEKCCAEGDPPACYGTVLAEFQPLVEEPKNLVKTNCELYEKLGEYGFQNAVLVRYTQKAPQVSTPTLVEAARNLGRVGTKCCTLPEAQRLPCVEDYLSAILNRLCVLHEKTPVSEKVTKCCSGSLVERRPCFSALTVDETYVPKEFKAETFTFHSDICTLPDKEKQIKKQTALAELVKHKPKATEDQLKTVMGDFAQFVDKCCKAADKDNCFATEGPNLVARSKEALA

B1: 5A7IVabc-AAA-6xHis (VNAR)
VNAR: ARVDQSPSSLSASVGDRVTITCVLRDASYALGSTCWYQQKPGKAPKSISKGGRYSESVNSGSKSFTLTISSLQPEDFATYYCGLGVAGGYCDYALCSSRYAECGQGTKVEIKA
notes: Humanized 5A7 VNAR, monomeric; also called humanized 5A7-IVabc
As a reminder, the Kd is a measure of binding affinity in units of concentration. Lower therefore signals a tighter complex. As usually defined, the koff is the rate constant with which the complex falls apart. Usually kon stands for the rate constant with which the complex forms. A higher kon goes with fast association. In the assay with hen egg lysozyme [1], B1 yielded a dissociation constant Kd of 14.8 nM, a koff of 0.173 s⁻¹ and a kon of 1.17e+07 M⁻¹ s⁻¹.

B2: E06-AAA-6xHis (VNAR)
VNAR: TRVDQTPRTATRETGESLTINCVLTDTSYPLYSTYWYRKNPGSSNKEQISISGRYVESVNKGTKSFSLRIKDLTVADSATYICRAMGTNIWTGDGAGTVLTVNA
notes: Shark VNAR single domain against serum albumin; also called wild-type E06; monomeric 6xHis-tagged E06
Regarding B2, the binding result with hen egg lysozyme [2] is recorded as “no binding”. Besides, the Kd in the assay with CSA turned out to be 0.219 nM; with human serum albumin [3], 0.189 nM; with mouse serum albumin [4], 0.74 nM; with rat serum albumin [5], 1.34 nM; in the assay with human serum albumin [6], 0.19 nM; with mouse serum albumin [7] it was 0.83 nM. In addition, the Kd with rat serum albumin [8] amounted to 1.45 nM; with human serum albumin [9], 0.14 nM; in the assay with mouse serum albumin [10], 0.33 nM; with rat serum albumin [11], 0.34 nM. For the same molecule, the koff is 0.000584 s⁻¹ in the assay with CSA; 0.000583 s⁻¹ with human serum albumin [3]; 0.00171 s⁻¹ in the assay with mouse serum albumin [4]; 0.00301 s⁻¹ with rat serum albumin [5]; 0.000655 s⁻¹ with human serum albumin [6]; 0.0018 s⁻¹ with mouse serum albumin [7]. Also, the koff was 0.0032 s⁻¹ with rat serum albumin [8], 0.00159 s⁻¹ with human serum albumin [9], 0.00323 s⁻¹ in the assay with mouse serum albumin [10] and 0.00433 s⁻¹ in the assay with rat serum albumin [11]. In addition, the kon in the assay with CSA is 2.68e+06 M⁻¹ s⁻¹; in the assay with human serum albumin [3] it was 3.09e+06 M⁻¹ s⁻¹; with mouse serum albumin [4], 2.32e+06 M⁻¹ s⁻¹; with rat serum albumin [5], 2.24e+06 M⁻¹ s⁻¹; with human serum albumin [6], 3.48e+06 M⁻¹ s⁻¹; with mouse serum albumin [7], 2.18e+06 M⁻¹ s⁻¹. Besides, the kon was 2.21e+06 M⁻¹ s⁻¹ with rat serum albumin [8], 1.12e+07 M⁻¹ s⁻¹ in the assay with human serum albumin [9], 9.85e+06 M⁻¹ s⁻¹ in the assay with mouse serum albumin [10] and 1.26e+07 M⁻¹ s⁻¹ with rat serum albumin [11].

B3: 2V-E06 (VNAR, part only; not given: naive VNAR 2V and linker, not shown: small tags and cut ends)
chain, part: TRVDQTPRTATRETGESLTINCVLTDTSYPLYSTYWYRKNPGSSNKEQISISGRYVESVNKGTKSFSLRIKDLTVADSATYICRAMGTNIWTGDGAGTVLTVNAAAHHHHHH
Take B3: the Kd with CSA came out at 0.91 nM; in the assay with human serum albumin [3], 0.721 nM; with mouse serum albumin [4], 2.49 nM; in the assay with rat serum albumin [5], 5.95 nM. The koff with CSA turned out to be 0.000682 s⁻¹; with human serum albumin [3], 0.000641 s⁻¹; with mouse serum albumin [4] it was 0.00214 s⁻¹; with rat serum albumin [5] it was 0.00344 s⁻¹. Also, the kon was 820000 M⁻¹ s⁻¹ with CSA, 953000 M⁻¹ s⁻¹ in the assay with human serum albumin [3], 862000 M⁻¹ s⁻¹ in the assay with mouse serum albumin [4] and 623000 M⁻¹ s⁻¹ in the assay with rat serum albumin [5].

B4: 5A7-AAA-6xHis (VNAR)
VNAR: ARVDQTPRSVTKETGESLTINCVLRDASYALGSTCWYRKKSGEGNEESISKGGRYVETVNSGSKSFSLRINDLTVEDGGTYRCGLGVAGGYCDYALCSSRYAECGDGTAVTVNA
notes: Type I shark VNAR against hen egg lysozyme, monomeric; also called parental 5A7; anti-HEL 5A7
For the molecule B4, the binding result with human serum albumin [12] and with mouse serum albumin [13] was “no binding” in each case.

B5: BD12 (VNAR)
VNAR: TRVDQSPSSLSASVGDRVTITCVLTDTSYPLYSTYWYRKNPGSSNKEQISISGRYSESVNKGTNSFTLTISSLQPEDFATYYCRAMGTNIWTGDGAGTKVEIK
notes: Variant of huE06 v1.10 from error-prone PCR
In the case of B5, in the assay with human serum albumin [14], the binding result is given as “binds”.

B6: BE4 (VNAR)
VNAR: TRVDQSPSSLSASVGDRVTITCVLTDTSYSLYSTYWYRKNPGSSNKEQISISGRYSESVNKGTKSFTLTISSLQPEDFATYYCRAMGTNIWTGDGAGTKVEIK
notes: as for B5
Turning to B6, the binding result in the assay with human serum albumin [14] is listed as “binds”.
